These are literature values, as cited in PMC3078979.

The target of the data set is Gamide (amidated gastrin) (Homo sapiens) (UniProt P01350). Briefly: ultracentrifugation.

In the case of apo-transferrin (from UniProt P02787), the Kd was 6.4 µM.

For orientation: Kd means the equilibrium constant for the complex coming apart.
